Assay results from publication PMC9179584 (2022).

B1: SMAD2 wild type, overexpressed from pCMV5b-SMAD2 [not stated] / SMAD Anchor for Receptor Activation (SARA) [human (endogenous in HT-1080)] (parent complex)
chain 1: MSSILPFTPPVVKRLLGWKKSAGGSGGAGGGEQNGQEEKWCEKAVKSLVKKLKKTGRLDELEKAITTQNCNTKCVTIPSTCSEIWGLSTPNTIDQWDTTGLYSFSEQTRSLDGRLQVSHRKGLPHVIYCRLWRWPDLHSHHELKAIENCEYAFNLKKDEVCVNPYHYQRVETPVLPPVLVPRHTEILTELPPLDDYTHSIPENTNFPAGIEPQSNYIPETPPPGYISEDGETSDQQLNQSMDTGSPAELSPTTLSPVNHSLDLQPVTYSEPAFWCSIAYYELNQRVGETFHASQPSLTVDGFTDPSNSERFCLGLLSNVNRNATVEMTRRHIGRGVRLYYIGGEVFAECLSDSAIFVQSPNCNQRYGWHPATVCKIPPGCNLKIFNNQEFAALLAQSVNQGFEAVYQLTRMCTIRMSFVKGWGAEYRRQTVTSTPCWIELHLNGPLQWLDKVLTQMGSPSVRCSSMS
chain 2: MENYFQAEAYNLDKVLDEFEQNEDETVSSTLLDTKWNKILDPPSHRLSFNPTLASVNESAVSNESQPQLKVFSLAHSAPLTTEEEDHCANGQDCNLNPEIATMWIDENAVAEDQLIKRNYSWDDQCSAVEVGEKKCGNLACLPDEKNVLVVAVMHNCDKRTLQNDLQDCNNYNSQSLMDAFSCSLDNENRQTDQFSFSINESTEKDMNSEKQMDPLNRPKTEGRSVNHLCPTSSDSLASVCSPSQLKDDGSIGRDPSMSAITSLTVDSVISSQGTDGCPAVKKQENYIPDEDLTGKISSPRTDLGSPNSFSHMSEGILMKKEPAEESTTEESLRSGLPLLLKPDMPNGSGRNNDCERCSDCLVPNEVRADENEGYEHEETLGTTEFLNMTEHFSESQDMTNWKLTKLNEMNDSQVNEEKEKFLQISQPEDTNGDSGGQCVGLADAGLDLKGTCISESEECDFSTVIDTPAANYLSNGCDSYGMQDPGVSFVPKTLPSKEDSVTEEKEIEESKSECYSNIYEQRGNEATEGSGLLLNSTGDLMKKNYLHNFCSQVPSVLGQSSPKVVASLPSISVPFGGARPKQPSNLKLQIPKPLSDHLQNDFPANSGNNTKNKNDILGKAKLGENSATNVCSPSLGNISNVDTNGEHLESYEAEISTRPCLALAPDSPDNDLRAGQFGISARKPFTTLGEVAPVWVPDSQAPNCMKCEARFTFTKRRHHCRACGKVFCASCCSLKCKLLYMDRKEARVCVICHSVLMNAQAWENMMSASSQSPNPNNPAEYCSTIPPLQQAQASGALSSPPPTVMVPVGVLKHPGAEVAQPREQRRVWFADGILPNGEVADAAKLTMNGTSSAGTLAVSHDPVKPVTTSPLPAETDICLFSGSITQVGSPVGSAMNLIPEDGLPPILISTGVKGDYAVEEKPSQISVMQQLEDGGPDPLVFVLNANLLSMVKIVNYVNRKCWCFTTKGMHAVGQSEIVILLQCLPDEKCLPKDIFNHFVQLYRDALAGNVVSNLGHSFFSQSFLGSKEHGGFLYVTSTYQSLQDLVLPTPPYLFGILIQKWETPWAKVFPIRLMLRLGAEYRLYPCPLFSVRFRKPLFGETGHTIMNLLADFRNYQYTLPVVQGLVVDMEVRKTSIKIPSNRYNEMMKAMNKSNEHVLAGGACFNEKADSHLVCVQNDDGNYQTQAISIHNQPRKVTGASFFVFSGALKSSSGYLAKSSIVEDGVMVQITAENMDSLRQALREMKDFTITCGKADAEEPQEHIHIQWVDDDKNVSKGVVSPIDGKSMETITNVKIFHGSEYKANGKVIRWTEVFFLENDDQHNCLSDPADHSRLTEHVAKAFCLALCPHLKLLKEDGMTKLGLRVTLDSDQVGYQAGSNGQPLPSQYMNDLDSALVPVIHGGACQLSEGPVVMELIFYILENIV
B2: SMAD3 wild type, overexpressed from pCMV5b-SMAD3 [not stated] / SMAD Anchor for Receptor Activation (SARA) [human (endogenous in HT-1080)] (parent complex)
chain 1: MSSILPFTPPIVKRLLGWKKGEQNGQEEKWCEKAVKSLVKKLKKTGQLDELEKAITTQNVNTKCITIPRSLDGRLQVSHRKGLPHVIYCRLWRWPDLHSHHELRAMELCEFAFNMKKDEVCVNPYHYQRVETPVLPPVLVPRHTEIPAEFPPLDDYSHSIPENTNFPAGIEPQSNIPETPPPGYLSEDGETSDHQMNHSMDAGSPNLSPNPMSPAHNNLDLQPVTYCEPAFWCSISYYELNQRVGETFHASQPSMTVDGFTDPSNSERFCLGLLSNVNRNAAVELTRRHIGRGVRLYYIGGEVFAECLSDSAIFVQSPNCNQRYGWHPATVCKIPPGCNLKIFNNQEFAALLAQSVNQGFEAVYQLTRMCTIRMSFVKGWGAEYRRQTVTSTPCWIELHLNGPLQWLDKVLTQMGSPSIRCSSVS
chain 2: B1 chain 2

Variants of: B1
Test: co-immunoprecipitation (IP: SMAD2, blot SARA) with densitometry; HT-1080 cells transiently transfected; ratio printed relative to the pCMV5b empty-vector lane = 1; parent: 1.2

Row | screen value | Variant
1 | 0.5 | chain 1 N381S

Variants of: B2
Test: co-immunoprecipitation (IP: SMAD3, blot SARA) with densitometry; HT-1080 cells transiently transfected; ratio printed relative to the pCMV5b empty-vector lane = 1; parent: 0.6

Row | screen value | Variant
2 | 0.2 | chain 1 N339S
